Data taken from patent US20250026827A1.

Molecular target: SIRPγ on Jurkat cells (human) (UniProt Q9P1W8)
Assay: flow cytometry on Jurkat cells (endogenous SIRPγ), PE-conjugated antibody, fold over isotype (MFI)

SIRPγ on Jurkat cells (human), sequence (Q9P1W8 29-387): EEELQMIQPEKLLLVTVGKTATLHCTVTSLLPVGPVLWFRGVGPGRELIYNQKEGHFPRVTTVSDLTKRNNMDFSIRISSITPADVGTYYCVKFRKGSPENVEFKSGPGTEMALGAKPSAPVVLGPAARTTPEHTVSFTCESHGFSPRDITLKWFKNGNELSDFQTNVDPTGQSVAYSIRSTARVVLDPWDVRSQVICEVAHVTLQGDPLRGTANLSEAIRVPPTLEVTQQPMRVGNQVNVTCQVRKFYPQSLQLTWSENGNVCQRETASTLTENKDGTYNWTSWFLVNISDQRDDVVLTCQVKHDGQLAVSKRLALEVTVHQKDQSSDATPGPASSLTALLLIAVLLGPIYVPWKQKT

Substance: PE SIRPy LSB2.20 (antibody)
- EC50 (read off the curve): 20 nM
